In patent publication US10260068B2, “Prophylactic agent and therapeutic agent for fibrodysplasia ossificans progressiva” (Sumitomo Dainippon Pharma Co., Ltd., priority 2014, dated 2019):

T1: wild type ACVR1 (Homo sapiens, UniProt Q04771)
T1 construct: an iPS cell line with the ACVR1 gene mutation repaired to the normal type (wild type) by gene repair by a BAC knockin vector; endogenous in cells; host or cells: mesenchymal stem cell-like cells differentiated from the gene-corrected iPS cell clone
T1 sequence (Q04771 21-509): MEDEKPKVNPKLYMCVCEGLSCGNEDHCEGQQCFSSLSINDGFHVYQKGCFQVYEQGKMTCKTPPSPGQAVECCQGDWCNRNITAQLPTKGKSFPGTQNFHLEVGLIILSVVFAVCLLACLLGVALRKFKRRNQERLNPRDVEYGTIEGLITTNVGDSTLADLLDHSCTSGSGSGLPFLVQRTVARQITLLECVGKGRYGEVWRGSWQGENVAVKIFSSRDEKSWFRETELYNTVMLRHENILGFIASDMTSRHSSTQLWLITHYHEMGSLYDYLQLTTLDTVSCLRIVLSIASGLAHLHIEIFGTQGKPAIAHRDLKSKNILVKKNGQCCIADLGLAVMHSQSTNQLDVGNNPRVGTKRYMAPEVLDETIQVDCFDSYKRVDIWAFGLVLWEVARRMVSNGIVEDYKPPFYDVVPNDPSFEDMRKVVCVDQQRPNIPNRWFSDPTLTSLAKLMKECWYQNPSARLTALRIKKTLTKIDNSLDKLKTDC


Experiments:
wild type ACVR1 = target: T1, wild type ACVR1; assay: Luciferase reporter (BMP responsive sequence) transcription activity in gene-corrected clone derived cells; format: cell-based; details: ligand 1, 10, 100 ng/mL, 16 hours
From the text: Following the method of Yamanaka et al. (Cell, 2007, 131 (5), […]), FOP patient-derived iPS cells (hereunder also referred to as “patient-derived iPS cell line”) were established. The patient cells were confirmed to be cells having a typical FOP-associated mutation in the ACVR1 gene. The mutation is a substitution of the 206th arginine residue of the amino acid sequence of ACVR1 (the amino acid sequence listed as SEQ ID NO: 10) with a histidine residue. Next, for use as a control, an iPS cell line with the ACVR1 gene mutation repaired to the normal type (wild type) by gene repair by a BAC knockin vector (hereunder also referred to as “gene-corrected iPS cell clone” or “gene-rescued iPS cell clone”) was established.
The patient-derived iPS cell line and gene-corrected iPS cell line were cultured on the matrix of a Matrigel coated plate (trade name: Growth Factor Reduced (GFR)BD Matrigel® by Becton & Dickinson), using mTeSR1 (Stem Cell Technologies) for 2 days under feeder-free conditions. Next, using serum-free medium [F12 Nutrient Mixture (product of Gibco)/Iscove's Modified Dulbecco's Medium (IMDM) (product of Sigma-Aldrich Japan, KK.)/0.5% bovine serum albumin (BSA) (product of Sigma-Aldrich Japan, KK.)/1% Chemically Defined Lipid (CD-Lipid) (product of Gibco, trade name: Chemically Defined Lipid Concentrate)/15 μg/mL apotransferrin (product of Sigma-Aldrich Japan, KK., trade name: apo-Transferrin human)/7 μg/mL insulin (product of Wako Pure Chemical Industries, Ltd., trade name: Insulin, Human, recombinant)/0.45 mM 1-Thioglycerol (product of Sigma-Aldrich Japan, KK.)] with addition of 10 μM SB-431542 (product of Selleck Chemicals) and 1 μM CHIR99021 (product of Wako Pure Chemical Industries, Ltd.), the patient-derived iPS cell line and gene-corrected iPS cell line were further cultured for 1 week under feeder-free conditions for differentiation to neural crest cells. […]
After mixing Firefly luciferase reporter plasmid having the BMP responsive sequence in the promoter region (J. Biol. Chem., 2002, 277(7), 4883-4891) and a plasmid having a nucleic acid sequence coding for Renilla luciferase downstream from CMV promoter, as an internal standard (product of Promega Corp., trade name: phRL-CMV Vector), FuGene® HD (Promega Corp.) was used for transfection into the mesenchymal stem cell-like cells. […] Next, the luciferase activity was measured according to the protocol provided with a Dual-Glo Luciferase Assay System (product of Promega Corp.). The luminescence was detected using an EnVision Multilabel Counter (product of Perkin-Elmer). […]

SMAD1/5/8 = SMAD1/5/8 phosphorylation by Western blotting in FOP patient derived cells; format: cell-based, human; details: for amount of total SMAD1/5/8: Western blotting, 60 minutes treatment, FOP patient derived and gene-corrected clone derived cells
Method: Mesenchymal stem cell-like cells from a patient iPS cell line and a gene-corrected iPS cell clone were each prepared by the same method as Example 1. Culturing was conducted for 60 minutes with addition of 10 ng/mL and 100 ng/mL of human activin A or 100 ng/mL of human BMP-7 to the mesenchymal stem cell-like cells. The cells were then solubilized with 300 μL of a dissolving solution (70 mM Tris-HCl buffer solution, pH 6.8, 11.2% glycerol, 3% sodium dodecyl sulfate), and a cell extract was prepared. The amount of phosphorylated SMAD1/5/8 and the amount of total SMAD1/5/8 in the obtained cell extract were quantified by Western blotting. As the primary antibody for phosphorylated SMAD1/5/8 there was used rabbit anti-phosphorylated SMAD1/5/8 antibody [product of Cell Signaling Tech., trade name: Phospho-Smad1 (Ser463/465)/Smad5 (Ser463/465)/Smad8 (Ser426/428) Antibody (Rabbit)], and as the primary antibody for total SMAD1/5/8 there was used rabbit anti-total SMAD1/5/8 antibody [product of Santa Cruz Biotechnology, trade name: Smad1/5/8 Antibody (N-18)-R (Rabbit)]. The secondary antibody used was horseradish peroxidase conjugated anti-rabbit antibody (product of Cell Signaling Tech., trade name: Anti-rabbit IgG, HRP-linked Antibody). The substrate used for chemiluminescence was ECL Prime (product of GE Healthcare), and ChemiDocXRSPlus (product of Bio-Rad Laboratories, Inc.) was used for the detection.

| Molecule | transcription activity via ACVR1 (firefly/Renilla luciferase activity, BMP responsive sequence) (wild type ACVR1) | phosphorylation of SMAD1/5/8 (SMAD1/5/8; FOP patient derived cells, 10 and 100 ng/mL activin A, 60 minutes) | amount of total SMAD1/5/8 (SMAD1/5/8) |
| --- | --- | --- | --- |
| human activin A: Recombinant Human/Mouse/Rat Activin A (R&D Systems); homodimer of inhibin βA chains | not seen | induced | No significant change |
| BMP-7: Recombinant Human BMP-7 (R&D Systems); cytokine of the BMP family (protein) STGSKQRSQNRSKTPKNQEALRMANVAENSSSDQRQACKKHELYVSFRDLGWQDWIIAPEGYAAYYCEGECAFPLNSYMNATNHAIVQTLVHFINPETVPKPCCAPTQLNAISVLYFDDSSNVILKKYRNMVVRACGCH | increased in a concentration-dependent manner | – | No significant change |
